Consider one substance from patent US20050182242A1, “Global analysis of protein activities using proteome chips” (priority 2001, published 2005).

Holding throughout (settings): liposome binding signal on yeast proteome chip, Cy3-streptavidin detection
Data set [1] relates to phosphatidylcholine (PC) liposomes. The data set is described as follows: Yeast proteome chip probed with PC liposomes. An excerpt: (§1) To identify PI-binding proteins in yeast, liposomes were used as probes because the liposome provides the most relevant physiological condition to assay the interactors. Six types of liposomes were used. Each contains phosphatidylcholine (“PC”) with 1% (w/w) N-(biotinoyl)-1,2-dihexadecanoyl-sn-glycero-3-phosphoethanolamine, triethylammonium salt (biotin DHPE). The biotinylated lipid serves as a label that can be detected by Cy3-streptavidin (21). In addition to PC, the five other liposomes contain either 5% (w/w) PI(3)P, PI(4)P, PI(3,4)P2, PI(4,5)P2, or PI(3,4,5)P3 (FIG. 3A).
(§2) The protein-liposome interaction was assayed as follows. Appropriate amounts of each lipid in chloroform were mixed and dried under nitrogen. The lipid mixture was resuspended in TBS buffer by vortexing. The liposomes were created by sonication. Blocked proteome chips were washed three to five times in PBS buffer, and the extra liquid on the glass surface was removed by tapping the slides vertically on a KIMWIPE™. 200 μl of liposome solution was added to the proteome chip and immediately covered by a hydrophobic plastic cover slip (GRACE BIO-LAB™, USA). After trapped air bubbles were removed, the chip was incubated in a humidity chamber at RT for one hour. To remove the cover slip, the chip was immersed into large volume of PBS buffer (50 ml), so that the slip would float away. The chip was then moved to a second PBS bath (>50 ml) and washed 3×5 min with shaking at RT. After removing extra liquid on the surface of the chip, about 100 μl of Cy3 or Cy5 conjugated streptavidin (PIERCE™, USA; 1:2000 to 1:4000 dilution) was added to the surface and covered by a hydrophobic plastic cover slip (GRACE BIO-LABS™, USA). The chip was incubated for greater than 30 min in the dark at RT. The chip was then washed as described above. To completely remove the liquid on the chip, the chip was spun to dryness at 1500-2000 rpm for 5-10 min at RT.
• 1. S. Fields, Y. Kohara, D. J. Lockhart, Proc. Natl. Acad. Sci. 96, 8825 (1999); A. Goffeau et al., Science 274, 563 (1996). • 2 P. Ross-Macdonald et al., Nature 402, 413 (1999); J. L., DeRisi, V. R. Iyer, P. O. Brown, Science 278, 680 (1997); E. A. Winzeler et al., Science 285, 901 (1999). P. Uetz et al., Nature 403, 623 (2000); T. Ito et al., Proc. Natl. Acad. Sci. USA. 97, 1143 (2000) • 3 H. Zhu, M. Snyder, Curr. Opin. Chem. Biol. 5, 40 (2001). • 4 M. R. Martzen et al., Science 286, 1153 (1999). • 5 H. Zhu et al., Nat. Genet. 26, 283 (2000). • 6 G. MacBeath, S. L. Schreiber, Science 289, 1760 (2000). • 7 A. Caveman, J. Cell Sci. 113, 3543 (2000). • 8 P. Arenkov et al., Anal. Biochem 278, 123 (2000). • 9 D. A. Mitchell, T. K. Marshall, R. J. Deschenes, Yeast 9, 715 (1993). The expression vector pEGH was created by inserting an RGS-HisX6 epitope tag between the GST gene and the polycloning site of pEG(KG). The yeast ORFs were cloned using the strategy described previously (5), except every step was done in a 96-well format. Plasmid DNAs confirmed by DNA sequencing were reintroduced into both yeast (Y258) and E. coli (DH5a). […] 0.1 mM calcium was present in buffers in all subsequent steps. The chip was washed three times with PBS at RT. Cy3-conjugated streptavidin (Jackson IR, USA) (1:5000 dilution) was added to the chip and incubated for 30 min at RT. After extensive washing, the chip was spun dry and scanned using a microarray scanner; the data was subsequently acquired with the GENEPIX™ array densitometry software (Axon, USA). • 12 S. S. Hook, A. R. Means, Annu. Rev. […]

For data set [2], the system named is PI(3)P liposomes. The data set is described as follows: Yeast proteome chip probed with PI(3)P liposomes.
Excerpt: as §1
The protein-liposome interaction was assayed as follows. Appropriate amounts of each lipid in chloroform were mixed and dried under nitrogen. The lipid mixture was resuspended in TBS buffer by vortexing. The liposomes were created by sonication. Blocked proteome chips were washed three to five times in PBS buffer, and the extra liquid on the glass surface was removed by tapping the slides vertically on a KIMWIPE™. 200 μl of liposome solution was added to the proteome chip and immediately covered by a hydrophobic plastic cover slip (GRACE BIO-LAB™, USA). After trapped air bubbles were removed, the chip was incubated in a humidity chamber at RT for one hour. To remove the cover slip, the chip was immersed into large volume of PBS buffer (50 ml), so that the slip would float away. […]

Data set [3] concerns PI(4,5)P2 liposomes. The data set is described as follows: Yeast proteome chip probed with PI(4,5)P2 liposomes.
Excerpt: as §1, §2
• 1. S. Fields, Y. Kohara, D. J. Lockhart, Proc. Natl. Acad. Sci. 96, 8825 (1999); A. Goffeau et al., Science 274, 563 (1996). • 2 P. Ross-Macdonald et al., Nature 402, 413 (1999); J. L., DeRisi, V. R. Iyer, P. O. Brown, Science 278, 680 (1997); E. A. Winzeler et al., Science 285, 901 (1999). P. Uetz et al., Nature 403, 623 (2000); T. Ito et al., Proc. Natl. Acad. Sci. USA. 97, 1143 (2000) • 3 H. Zhu, M. Snyder, Curr. Opin. Chem. Biol. 5, 40 (2001). • 4 M. R. Martzen et al., Science 286, 1153 (1999). • 5 H. Zhu et al., Nat. Genet. 26, 283 (2000). • 6 G. MacBeath, S. L. Schreiber, Science 289, 1760 (2000). • 7 A. Caveman, J. Cell Sci. 113, 3543 (2000). • 8 P. Arenkov et al., Anal. Biochem 278, 123 (2000). • 9 D. A. Mitchell, T. K. Marshall, R. J. Deschenes, Yeast 9, 715 (1993). The expression vector pEGH was created by inserting an RGS-HisX6 epitope tag between the GST gene and the polycloning site of pEG(KG). The yeast ORFs were cloned using the strategy described previously (5), except every step was done in a 96-well format. Plasmid DNAs confirmed by DNA sequencing were reintroduced into both yeast (Y258) and E. coli (DH5a). […] 0.1 mM calcium was present in buffers in all subsequent steps. The chip was washed three times with PBS at RT. Cy3-conjugated streptavidin (Jackson IR, USA) (1:5000 dilution) was added to the chip and incubated for 30 min at RT. After extensive washing, the chip was spun dry and scanned using a microarray scanner; the data was subsequently acquired with the GENEPIX™ array densitometry software (Axon, USA). • 12 S. S. Hook, A. R. Means, Annu. Rev. Pharmacol. Toxicol.41, 471 (2001). • 13 M. S. Cyert, R. Kunisawa, D. Kaim, J. Thorner, Proc. Natl. Acad. Sci. USA 88, 7376 (1991). • 14 D. A. Stirling, K. A. Welch, M. J. Stark, EMBO J. 13, 4329 (1994). • 15 F. Bohl, Kruse, EMBO J. 19, 5514 (2000); E. Bertrand et al., Mol. Cell 2, 437 (1998). • 16 D. C. Winter, E. Y. Choe, R. Li, Proc. Nat. Acad Sci. USA 96, 7288 (1999). • 17 C.

Turning to “RIM15: yeast protein kinase, regulator of glucose metabolism, GST-HisX6 fusion”, in data set [1], the PC is 244.76. In data set [2], the “PI(3)P” value was 52.50. Further, the “PI(4, 5)P2” value in data set [3] is 687.19.
